According to article PMC12173945, “Import mechanism of peroxisomal proteins with an N-terminal signal sequence” (Nature Cell Biology, 2025):
Blank lines part the entries; values can stand above or below the molecule they belong to.

Key:
[1] = target: T1, yeast PEX7, P39108; test: bead sedimentation (GST pull-down depletion) assay, SDS-PAGE with Coomassie quantification of PEX7 left in the supernatant; conditions: chain shown with the change; 1 µM yeast PEX7; varying GST-PEX39 concentrations; 1 h; 25 °C; parent: 0.60 ± 0.056
T1 chain: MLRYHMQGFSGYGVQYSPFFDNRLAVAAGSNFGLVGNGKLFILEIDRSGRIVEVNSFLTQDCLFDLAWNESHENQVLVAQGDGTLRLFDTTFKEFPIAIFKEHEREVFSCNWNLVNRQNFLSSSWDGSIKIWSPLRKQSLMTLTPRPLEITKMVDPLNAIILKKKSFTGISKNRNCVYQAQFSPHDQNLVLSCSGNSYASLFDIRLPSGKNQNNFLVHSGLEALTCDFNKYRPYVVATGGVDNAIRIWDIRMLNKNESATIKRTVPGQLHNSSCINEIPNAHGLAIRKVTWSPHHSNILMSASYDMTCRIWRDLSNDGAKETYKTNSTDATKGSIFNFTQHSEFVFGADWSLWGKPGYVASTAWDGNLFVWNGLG

[2] = target: T2, yeast PEX7 fused at the C terminus to GFP (PEX7–GFP) (yeast (S. cerevisiae), UniProt P39108 1-375); test: YG hydrogel release assay (confocal microscopy); hydrogels equilibrated 3 h at RT with 0.5 µM PEX7–GFP or PEX5–GFP, with or without PTS2 peptide and receptor; PEX39 then spiked in and gels imaged every 2 min for 1 h; conditions: both partners purified
T2 construct: PEX7, yeast (S. cerevisiae); not shown: GST, N-terminal, cleaved; GFP, C-terminal, kept
T2 sequence (looked up): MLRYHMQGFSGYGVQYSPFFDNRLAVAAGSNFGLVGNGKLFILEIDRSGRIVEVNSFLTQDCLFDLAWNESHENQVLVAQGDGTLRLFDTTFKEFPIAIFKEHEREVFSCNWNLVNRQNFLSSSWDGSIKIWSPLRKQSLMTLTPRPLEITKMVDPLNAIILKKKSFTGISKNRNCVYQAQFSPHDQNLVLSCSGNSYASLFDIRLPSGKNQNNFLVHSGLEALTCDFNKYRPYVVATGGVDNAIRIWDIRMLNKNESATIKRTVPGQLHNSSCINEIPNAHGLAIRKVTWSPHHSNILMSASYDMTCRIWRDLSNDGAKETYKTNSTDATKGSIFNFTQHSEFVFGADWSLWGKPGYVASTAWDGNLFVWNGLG

[3] = target: T3, GST-tagged yeast PEX7 (GST–PEX7) (yeast (S. cerevisiae), UniProt P39108 1-375); test: bead-binding assay (fluorescence on beads by spinning-disk confocal microscopy); GST-tagged protein on glutathione beads; GFP-fused partner in solution (1 µM each in Extended Data Fig. 9a); 1 h, RT; conditions: both partners purified
T3 construct: PEX7, yeast (S. cerevisiae); GST followed by a TEV protease-cleavage site; source: purified recombinant; PEX7 was produced in P. pastoris as a fusion to an N-terminal GST tag; not shown: GST, N-terminal, kept
T3 sequence (looked up): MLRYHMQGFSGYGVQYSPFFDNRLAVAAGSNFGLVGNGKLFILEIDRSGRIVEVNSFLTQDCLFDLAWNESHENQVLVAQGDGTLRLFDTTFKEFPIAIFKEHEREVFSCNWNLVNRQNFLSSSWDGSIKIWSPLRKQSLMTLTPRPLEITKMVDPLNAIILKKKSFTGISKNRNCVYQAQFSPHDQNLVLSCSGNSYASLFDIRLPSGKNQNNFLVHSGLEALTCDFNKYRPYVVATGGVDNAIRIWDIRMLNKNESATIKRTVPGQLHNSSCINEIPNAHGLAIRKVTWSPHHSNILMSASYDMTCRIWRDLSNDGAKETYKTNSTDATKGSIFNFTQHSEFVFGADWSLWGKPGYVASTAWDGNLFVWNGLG

[4] = tested on: YG hydrogel (wild-type YG-domain polypeptide of PEX13); test: YG hydrogel permeation assay, wild-type hydrogel (Fig. 2, Fig. 3g, Extended Data Fig. 9d); conditions: wild-type hydrogel
Protocol: A solution of the purified wild-type YG-domain polypeptide (or the variant lacking the KPWE motif) was concentrated to 2 mM in 50 mM HEPES·NaOH pH 7.8 at RT, 2 M urea and 2 mM TCEP. Aliquots of 2 µl were then spotted on the bottom of multiple wells of a 96-well glass-bottomed plate (Cellvis, P96-1.5H-N), which was then sealed with a gas-impermeable AlumaSeal II film (Hampton Research, HR8-069) to prevent desiccation and incubated at RT for 24 h. Before each assay, the resulting gels were equilibrated overnight at RT in a 100-fold excess of Assay Buffer (25 mM HEPES·NaOH pH 7.8 at RT, 150 mM NaCl and 1 mM TCEP). A 0.5 µM solution of fluorescently labelled protein in Assay Buffer was then added to the samples, with or without additional components at the concentrations indicated in the text, and incubated at RT. Gels were imaged at the times indicated in the text using a Nikon A1R point-scanning confocal system consisting of an inverted Nikon Eclipse Ti microscope and a Nikon ×20 0.75 NA Plan Apo air objective. The objective was centred on the gel edge and focus was maintained 5 µm above the glass surface using the Nikon Perfect Focus System. Fluorescence was excited through a 405/488/561/647 quad-band dichroic (Chroma), using a 488-nm solid-state laser (Coherent) and a galvano scanner. A 50-nm emission band was collected on a gallium arsenide phosphide detector, using an ET525/50m (525 ± 25 nm) single-band bandpass filter (Chroma) and a pinhole dilated to 0.9 Airy units. Images were acquired using the Nikon NIS-Elements software with a pixel size of 1 µm and a 12-bit digitizer. Imaging parameters were configured to maximize the SNR while avoiding saturation. All samples intended to be compared were imaged using identical acquisition settings.
For the YG hydrogel permeation assay, images were first oriented such that each gel edge faced the same direction. Fluorescence profiles across the buffer–gel interface were then generated by centering a 60 × 300 µm rectangular area on the gel edge and then measuring the mean fluorescence at each position within this selection. To express the resulting values in terms of fold enrichment, the fluorescence at each position along the selection was normalized to the average fluorescence in the buffer and plotted in terms of the distance from the gel edge.
To calculate permeation rates through the YG hydrogel, a 60 × 300 µm rectangular area was first centred on the gel edge. The resulting region was then thresholded to demarcate the permeation zone (that is, the distance traversed by the fluorescent species) from the buffer and non-permeated part of the gel. The width of the area above the threshold was then measured and plotted as a function of time. A linear fit to the data yielded the permeation rate.

B1: GST-tagged wild-type yeast PEX39 (GST–PEX39), P47087 ΔRPWE (RPWE motif converted to alanine) (protein)
chain: MAAGGELSYEELLDHILNNKPIPNIVEVPNVTLDEGLASTPSLRPRPAAAAGQLQHQSHQGSLDKPNISLDIDQESLEGMTSLTRLSECYDIQSKLQINDSDNDNDDNNNDNNKGDGNDDDNNTVTANPTAR
other: Kobs (observed binding constant) [1]: 190 µM

B4: PEX39–GFP: PEX39 fused at the C terminus to a GSG linker and mEGFP (protein)
chain: MAAGGELSYEELLDHILNNKPIPNIVEVPNVTLDEGLASTPSLRPRPRPWEGQLQHQSHQGSLDKPNISLDIDQESLEGMTSLTRLSECYDIQSKLQINDSDNDNDDNNNDNNKGDGNDDDNNTVTANPTAR
modifications: left off: GST, N-terminal, cleaved | GFP, C-terminal, kept
notes: PEX39 fused at the C terminus to a GSG linker and mEGFP
Entry into YG hydrogel [4]: did not by itself enter the YG hydrogel

Second part, the molecule after the results:

binding result [2]: binds
B2: wild-type yeast PEX39 (natural protein, UniProt P47087 1-132, looked up)
chain: MAAGGELSYEELLDHILNNKPIPNIVEVPNVTLDEGLASTPSLRPRPRPWEGQLQHQSHQGSLDKPNISLDIDQESLEGMTSLTRLSECYDIQSKLQINDSDNDNDDNNNDNNKGDGNDDDNNTVTANPTAR
notes: PEX39, yeast; also called WT; not shown: GST, N-terminal, cleaved

binding result [3]: binds
B3: yeast PEX39 fused at the C terminus to GFP (PEX39–GFP) (natural protein, UniProt P47087 1-132, looked up)
chain: MAAGGELSYEELLDHILNNKPIPNIVEVPNVTLDEGLASTPSLRPRPRPWEGQLQHQSHQGSLDKPNISLDIDQESLEGMTSLTRLSECYDIQSKLQINDSDNDNDDNNNDNNKGDGNDDDNNTVTANPTAR
notes: PEX39, yeast; not shown: GST, N-terminal, cleaved; GFP, C-terminal, kept
